Results as given in patent publication US20060025337.

Biological target: T1, p53-382 acetylated peptide substrate ('Fluor de Lys-SIRT1', BIOMOL) (not fully specified)
T1 chain: RHKK

B1: recombinant human SIRT1 (His6-tagged) (protein)
chain: MADEAALALQPGGSPSAAGADREAASSPAGEPLRKRPRRDGPGLERSPGEPGGAAPEREVPAAARGCPGAAAAALWREAEAEAAAAGGEQEAQATAAAGEGDNGPGLQGPSREPPLADNLYDEDDDDEGEEEEEAAAAAIGYRDNLLFGDEIITNGFHSCESDEEDRASHASSSDWTPRPRIGPYTFVQQHLMIGTDPRTILKDLLPETIPPPELDDMTLWQIVINILSEPPKRKKRKDINTIEDAVKLLQECKKIIVLTGAGVSVSCGIPDFRSRDGIYARLAVDFPDLPDPQAMFDIEYFRKDPRPFFKFAKEIYPGQFQPSLCHKFIALSDKEGKLLRNYTQNIDTLEQVAGIQRIIQCHGSFATASCLICKYKVDCEAVRGDIFNQVVPRCPRCPADEPLAIMKPEIVFFGENLPEQFHRAMKYDKDEVDLLIVIGSSLKVRPVALIPSSIPHEVPQILINREPLPHLHFDVELLGDCDVIINELCHRLGGEYAKLCCNPVKLSEITEKPPRTQKELAYLSELPPTPLHVSEDSSSPERTSPPDSSVIVTLLDQAAKSNDDLDVSESKGCMEEKPQEVQTSRNVESIAEQMENPDLKNVGSSTGEKNERTSVAGTVRKCWPNRVAKEQISRRLDGNQYLFLPPNRYIFHGAEVYSDSEDDVLSSSSCGSNSDSGTCQSPSLEEPMEDESEIEEFYNGLEDEPDVPERAGGAGFGTDGDDQEAINEAISVKQEVTDMNYPSNKS
Km for p53-382 acetylated peptide (SIRT1 initial rate at 3 mM NAD+, control, no resveratrol): Km(control, ν)=64 µM | Km for p53-382 acetylated peptide (SIRT1 initial rate at 3 mM NAD+, with 100 µM resveratrol): Km (+resveratrol, Δ)=1.8 µM | fold decrease of the acetylated peptide Km caused by 100 µM resveratrol: Its effect on the acetylated peptide Km was particularly striking, amounting to a 35-fold decrease
